Results as given in patent EP2385124A2 (Arbor Vita Corporation, dated 2011).
One block for each binder: values may come before it. No end group written: not given here. *: point of attachment. Biotin = O=C1N[C@H]2[C@H](CS[C@H]2CCCCC(=O)*)N1

Assays:
[1] = target: T1, GST-PSD95 PDZ domains 1-3 fusion protein (human, UniProt P78352 58-395); test: A/G plate assay (TABLE 2)
T1 construct: domain: PDZ domains 1-3 (of 3); AA numbers count on the GenBank entry; not shown: glutathione-S transferase (GST) as encoded by vector pGEX-3X (Pharmacia)
T1 sequence (P78352 other isoform, or with tags, fused parts or gaps): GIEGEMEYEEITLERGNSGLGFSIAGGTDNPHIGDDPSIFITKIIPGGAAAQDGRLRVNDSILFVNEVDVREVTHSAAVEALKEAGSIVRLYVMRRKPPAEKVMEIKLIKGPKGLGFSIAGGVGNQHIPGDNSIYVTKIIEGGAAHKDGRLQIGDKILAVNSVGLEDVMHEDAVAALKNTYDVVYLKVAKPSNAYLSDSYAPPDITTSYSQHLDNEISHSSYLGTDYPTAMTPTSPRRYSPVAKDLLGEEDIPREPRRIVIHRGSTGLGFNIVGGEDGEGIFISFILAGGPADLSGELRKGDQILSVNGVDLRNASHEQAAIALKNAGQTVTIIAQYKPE

[2] = target: T2, GST-KIAA0561 PDZ domain fusion protein (UniProt O60307 948-1038); test: A/G plate assay (TABLE 2)
T2 construct: domain: PDZ domain 1 (of 1); AA numbers count on the GenBank entry; also called K561; not shown: glutathione-S transferase (GST) as encoded by vector pGEX-3X (Pharmacia)
T2 sequence: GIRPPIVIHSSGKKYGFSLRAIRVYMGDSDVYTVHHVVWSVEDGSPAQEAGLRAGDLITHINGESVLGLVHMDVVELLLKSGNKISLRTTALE

[3] = target: T3, GST-TIAM1 PDZ domain fusion protein (UniProt Q13009 844-931); test: A/G plate assay (TABLE 2)
T3 construct: domain: PDZ 1 (of 1); AA numbers count on the GenBank entry; also called T-lymphoma invasion and metastasis inducing protein 1; not shown: glutathione-S transferase (GST) as encoded by vector pGEX-3X (Pharmacia)
T3 sequence (Q13009 other isoform, or with tags, fused parts or gaps): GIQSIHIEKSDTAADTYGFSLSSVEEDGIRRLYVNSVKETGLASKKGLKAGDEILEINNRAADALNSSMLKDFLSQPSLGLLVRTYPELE

[4] = target: T4, GST-KIAA0303 PDZ domain fusion protein (UniProt O15021 1139-1229); test: A/G plate assay (TABLE 2)
T4 construct: domain: PDZ domain 1 (of 1); AA numbers count on the GenBank entry; also called K303; not shown: glutathione-S transferase (GST) as encoded by vector pGEX-3X (Pharmacia)
T4 sequence: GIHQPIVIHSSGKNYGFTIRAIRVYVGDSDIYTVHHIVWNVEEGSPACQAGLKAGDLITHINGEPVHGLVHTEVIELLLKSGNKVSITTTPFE

[5] = target: T5, GST-MPP1 PDZ domain fusion protein (UniProt Q00013 67-152); test: A/G plate assay (TABLE 2)
T5 construct: domain: PDZ domain 1 (of 1); AA numbers count on the GenBank entry; also called 55 Kd erythrocyte membrane protein; not shown: glutathione-S transferase (GST) as encoded by vector pGEX-3X (Pharmacia)
T5 sequence: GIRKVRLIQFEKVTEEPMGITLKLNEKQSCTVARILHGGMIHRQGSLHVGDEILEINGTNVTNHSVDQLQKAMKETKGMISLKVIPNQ

[6] = target: T6, GST-PTN-4 PDZ domain fusion protein (UniProt P29074 516-604); test: A/G plate assay (TABLE 2)
T6 construct: domain: PDZ domain 1 (of 1); AA numbers count on the GenBank entry; also called protein-tyrosine phosphatase meg1; not shown: glutathione-S transferase (GST) as encoded by vector pGEX-3X (Pharmacia)
T6 sequence: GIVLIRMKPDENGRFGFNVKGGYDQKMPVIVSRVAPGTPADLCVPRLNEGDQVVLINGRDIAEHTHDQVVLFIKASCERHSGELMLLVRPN

[7] = target: T7, GST-prIL16 PDZ domains 1-2 fusion protein (UniProt Q14005 1111-1324); test: A/G plate assay (TABLE 2)
T7 construct: domain: PDZ domain 1-2 (of 2); AA numbers count on the GenBank entry; also called putative interleukin 16 precursor; not shown: glutathione-S transferase (GST) as encoded by vector pGEX-3X (Pharmacia)
T7 sequence: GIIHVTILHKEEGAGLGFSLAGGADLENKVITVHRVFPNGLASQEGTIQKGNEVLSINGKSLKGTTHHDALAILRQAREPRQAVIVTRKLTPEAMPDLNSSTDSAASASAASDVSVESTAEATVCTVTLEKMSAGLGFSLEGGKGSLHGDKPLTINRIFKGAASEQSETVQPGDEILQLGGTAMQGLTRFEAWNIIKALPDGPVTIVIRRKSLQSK

[8] = target: T1, GST-PSD95 PDZ domains 1-3 fusion protein; test: G assay, biotinylated peptide titrated on plate-bound GST-PDZ, saturation fit (apparent affinity)
[9] = target: T8, GST-AF6 PDZ domain fusion protein (UniProt P55196 1001-1093); test: A/G plate assay (TABLE 2)
T8 construct: domain: PDZ domain 1 (of 1); AA numbers count on the GenBank entry; also called af-6 protein; not shown: glutathione-S transferase (GST) as encoded by vector pGEX-3X (Pharmacia)
T8 sequence: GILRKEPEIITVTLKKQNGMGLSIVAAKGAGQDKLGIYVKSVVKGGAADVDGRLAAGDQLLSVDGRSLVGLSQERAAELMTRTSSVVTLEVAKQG

binding result [1]: binds
B1: KV1.3 C-terminal PL peptide AA33L (peptide)
peptide: Biotin-TTNNNPNSAVNIKKIFTDV

binding result [2]: binds
B2: FasL C-terminal PL peptide AA23L-M (peptide)
peptide: Biotin-SSKSKSSEESQTFFGLYKL
notes: also called FAS Ligand

binding result [3]: binds
binding result [4]: binds
binding result [5]: binds
B3: VCAM1 C-terminal PL peptide AA17L (peptide)
peptide: Biotin-ARKANMKGSYSLVEAQKSKV

binding result [1]: binds
B4: CD3n C-terminal PL peptide AA4L (peptide)
peptide: Biotin-SVFSIPTLWSPWPPSSSSQL
notes: also called CD3-eta; CD3-η

binding result [6]: binds
B5: CDW125 (IL5R) C-terminal PL peptide AA28L (peptide)
peptide: Biotin-EVICYIEKPGVETLEDSVF

binding result [7]: binds
binding result [5]: binds
B6: CD44 C-terminal PL peptide AA9L (peptide)
peptide: Biotin-QFMTADETRNLQNVDMKIGV

Kd [8]: 85 µM
B7: CD95 (Fas) C-terminal PL peptide AA13L (peptide)
peptide: Biotin-KDITSDSENSNFRNEIQSLV
notes: also called AAI3L

binding result [1]: binds
B8: CD34 C-terminal PL peptide AA7L (peptide)
peptide: Biotin-QATSRNGHSARQHVVADTEL

binding result [9]: binds
binding result [1]: binds
B9: DNAM-1 C-terminal PL peptide AA22L (peptide)
peptide: Biotin-TREDIYVNYPTFSRRPKTRV

binding result [1]: binds
B10: CD46 (Form 1) C-terminal PL peptide AA10L (peptide)
peptide: Biotin-KKGTYLTDETHREVKFTSL

binding result [9]: binds
binding result [5]: no binding
binding result [1]: binds
B11: Glycophorin C C-terminal PL peptide AA37L (peptide)
peptide: Biotin-QGDPALQDAGDSSRKEYFI
notes: also called GC

binding result [1]: binds
B12: CD83 C-terminal PL peptide AA47L (peptide)
peptide: Biotin-VTSPNKHLGLVTPHKTELV

binding result [5]: binds
B13: Neurexin C-terminal PL peptide AA38L (peptide)
peptide: Biotin-SSAKSSNKNKKNKDKEYYV

binding result [1]: binds
B14: CDW128B (IL8RB) C-terminal PL peptide AA29.2L (peptide)
peptide: Biotin-KDSRPSFVGSSSGHTSTTL

binding result [3]: binds
B15: CD138 C-terminal PL peptide AA18L (peptide)
peptide: Biotin-PKQANGGAYQKPTKQEEFYA
